Experimental data taken from patent US20080014191A1.
Each block holds one substance with its values, some of them ahead of it.

Key:
[1] = molecular target: wild-type cystic fibrosis transmembrane conductance regulator (CFTR) (Homo sapiens (Human)) (UniProt P13569); assay: CFTR co-IP, MudPIT MS; cell line not stated
[2] = molecular target: wild-type cystic fibrosis transmembrane conductance regulator (CFTR) (Homo sapiens (Human)) (UniProt P13569); assay: CFTR co-IP, MudPIT MS; BHK wt
[3] = molecular target: ΔF508 CFTR (Homo sapiens (Human)) (UniProt P13569); assay: CFTR co-IP, MudPIT MS; BHK ΔF508
[4] = molecular target: wild-type cystic fibrosis transmembrane conductance regulator (CFTR) (Homo sapiens (Human)) (UniProt P13569); assay: CFTR co-IP, MudPIT MS; BHK wt, Calu-3, HT29, T84
[5] = molecular target: ΔF508 CFTR (Homo sapiens (Human)) (UniProt P13569); assay: CFTR co-IP, MudPIT MS; ΔF508

Sequence of ΔF508 CFTR (Homo sapiens (Human)) (P13569 other isoform, or with tags, fused parts or gaps mutant limits assumed): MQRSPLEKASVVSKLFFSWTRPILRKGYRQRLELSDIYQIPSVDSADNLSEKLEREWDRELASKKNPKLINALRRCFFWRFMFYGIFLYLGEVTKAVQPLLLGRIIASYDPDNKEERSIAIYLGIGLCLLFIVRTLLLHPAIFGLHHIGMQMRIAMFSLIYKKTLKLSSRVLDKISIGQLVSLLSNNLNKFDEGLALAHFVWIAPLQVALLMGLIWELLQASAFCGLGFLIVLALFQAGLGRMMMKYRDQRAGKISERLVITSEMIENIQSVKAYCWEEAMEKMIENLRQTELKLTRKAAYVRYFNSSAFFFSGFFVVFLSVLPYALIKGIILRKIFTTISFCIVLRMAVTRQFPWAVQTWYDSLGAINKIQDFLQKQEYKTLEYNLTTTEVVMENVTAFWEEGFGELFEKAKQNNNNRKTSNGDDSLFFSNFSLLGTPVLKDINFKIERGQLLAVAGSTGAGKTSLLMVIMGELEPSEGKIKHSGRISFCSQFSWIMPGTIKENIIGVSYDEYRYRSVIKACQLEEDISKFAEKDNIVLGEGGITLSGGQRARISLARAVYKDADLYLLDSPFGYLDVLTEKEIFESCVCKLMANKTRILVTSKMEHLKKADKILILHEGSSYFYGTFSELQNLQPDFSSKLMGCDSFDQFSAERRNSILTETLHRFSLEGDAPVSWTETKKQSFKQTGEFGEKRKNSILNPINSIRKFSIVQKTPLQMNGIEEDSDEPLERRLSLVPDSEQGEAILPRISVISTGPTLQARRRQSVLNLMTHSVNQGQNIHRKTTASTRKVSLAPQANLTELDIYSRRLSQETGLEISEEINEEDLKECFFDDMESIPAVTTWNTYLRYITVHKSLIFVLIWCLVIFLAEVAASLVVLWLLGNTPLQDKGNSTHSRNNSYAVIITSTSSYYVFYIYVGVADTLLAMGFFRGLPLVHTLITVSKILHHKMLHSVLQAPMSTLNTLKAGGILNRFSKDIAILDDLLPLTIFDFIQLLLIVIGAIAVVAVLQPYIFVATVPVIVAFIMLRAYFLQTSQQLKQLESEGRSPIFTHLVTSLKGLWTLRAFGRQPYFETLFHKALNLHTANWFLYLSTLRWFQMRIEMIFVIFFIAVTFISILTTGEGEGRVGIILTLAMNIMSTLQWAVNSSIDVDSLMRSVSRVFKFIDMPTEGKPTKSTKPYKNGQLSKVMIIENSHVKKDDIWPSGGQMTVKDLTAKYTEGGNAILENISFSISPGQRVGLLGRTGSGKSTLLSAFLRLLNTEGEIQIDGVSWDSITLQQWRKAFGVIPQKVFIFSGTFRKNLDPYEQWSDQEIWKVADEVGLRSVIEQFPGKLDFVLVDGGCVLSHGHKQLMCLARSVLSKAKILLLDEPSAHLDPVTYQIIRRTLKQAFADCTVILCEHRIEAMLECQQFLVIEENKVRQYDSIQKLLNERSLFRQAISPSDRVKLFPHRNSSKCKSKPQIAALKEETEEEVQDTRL
Sequence of wild-type cystic fibrosis transmembrane conductance regulator (CFTR) (Homo sapiens (Human)) (P13569 whole entry): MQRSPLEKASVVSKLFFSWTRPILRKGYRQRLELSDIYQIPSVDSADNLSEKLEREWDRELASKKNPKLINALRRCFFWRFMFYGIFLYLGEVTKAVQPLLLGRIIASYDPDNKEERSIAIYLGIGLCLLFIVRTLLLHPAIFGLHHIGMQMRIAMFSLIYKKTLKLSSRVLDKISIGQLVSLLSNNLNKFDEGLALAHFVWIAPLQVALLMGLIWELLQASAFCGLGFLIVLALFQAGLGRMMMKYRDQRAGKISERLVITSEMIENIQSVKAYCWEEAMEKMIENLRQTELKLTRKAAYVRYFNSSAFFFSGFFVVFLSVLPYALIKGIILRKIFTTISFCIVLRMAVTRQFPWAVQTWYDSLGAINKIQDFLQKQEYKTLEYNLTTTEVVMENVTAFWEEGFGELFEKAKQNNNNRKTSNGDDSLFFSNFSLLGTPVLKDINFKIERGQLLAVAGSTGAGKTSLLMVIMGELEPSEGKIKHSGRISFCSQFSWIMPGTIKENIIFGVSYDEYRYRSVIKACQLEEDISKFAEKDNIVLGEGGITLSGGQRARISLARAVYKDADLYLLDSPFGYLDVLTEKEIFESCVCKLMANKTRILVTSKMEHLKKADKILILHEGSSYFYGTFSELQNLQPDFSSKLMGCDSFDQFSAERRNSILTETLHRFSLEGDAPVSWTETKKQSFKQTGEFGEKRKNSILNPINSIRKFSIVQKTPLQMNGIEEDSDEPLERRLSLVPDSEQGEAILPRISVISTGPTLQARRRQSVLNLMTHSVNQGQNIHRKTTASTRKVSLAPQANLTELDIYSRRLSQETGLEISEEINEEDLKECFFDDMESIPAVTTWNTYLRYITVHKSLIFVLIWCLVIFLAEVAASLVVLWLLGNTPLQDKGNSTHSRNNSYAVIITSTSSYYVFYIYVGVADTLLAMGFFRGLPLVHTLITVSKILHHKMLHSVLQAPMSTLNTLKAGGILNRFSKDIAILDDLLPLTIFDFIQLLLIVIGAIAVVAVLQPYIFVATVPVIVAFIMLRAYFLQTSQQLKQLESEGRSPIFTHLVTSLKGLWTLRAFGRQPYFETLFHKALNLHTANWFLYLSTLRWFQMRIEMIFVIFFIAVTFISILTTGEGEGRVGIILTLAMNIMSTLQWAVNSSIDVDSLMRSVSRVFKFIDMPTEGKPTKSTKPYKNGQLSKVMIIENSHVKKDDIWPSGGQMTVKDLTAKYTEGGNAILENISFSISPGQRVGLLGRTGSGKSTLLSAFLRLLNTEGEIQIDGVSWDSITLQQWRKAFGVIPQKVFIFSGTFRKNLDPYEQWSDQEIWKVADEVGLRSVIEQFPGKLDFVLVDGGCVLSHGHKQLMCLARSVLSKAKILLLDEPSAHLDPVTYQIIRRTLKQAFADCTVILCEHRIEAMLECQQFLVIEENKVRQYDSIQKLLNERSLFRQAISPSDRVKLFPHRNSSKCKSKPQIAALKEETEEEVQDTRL

Substance: BAG-2 (from UniProt O95816 2-211)
- % sequence coverage [2]: 10%
- total spectra [2]: 2 spectra
- unique spectra [2]: 2 spectra
- % sequence coverage [3]: 28%
- total spectra [3]: 20 spectra
- unique spectra [3]: 7 spectra

Substance: BAG-3 (from UniProt Q9JLV1 2-577)
- % sequence coverage [3]: 12%
- total spectra [3]: 5 spectra
- unique spectra [3]: 4 spectra

Substance: FKBP38 (from UniProt O35465 1-402)
- % sequence coverage [3]: 17%
- total spectra [3]: 5 spectra
- unique spectra [3]: 4 spectra

Substance: Hsc-Hsp70/Hsp90 organizing protein (HOP) (from UniProt Q60864 1-543)
- % sequence coverage [3]: 11%
- total spectra [3]: 4 spectra
- unique spectra [3]: 4 spectra

Substance: Hsp40-A1 (Hdj2) (from UniProt P31689 1-394)
- % sequence coverage [2]: 40%
- total spectra [2]: 25 spectra
- unique spectra [2]: 13 spectra
- % sequence coverage [3]: 31%
- total spectra [3]: 33 spectra
- unique spectra [3]: 10 spectra

Substance: Hsp40-A2 (Hdj3) (from UniProt O60884 1-409)
- % sequence coverage [2]: 28%
- total spectra [2]: 16 spectra
- unique spectra [2]: 6 spectra
- % sequence coverage [3]: 32%
- total spectra [3]: 19 spectra
- unique spectra [3]: 9 spectra

Substance: Hsp90, alpha (from UniProt P07900 2-732)
- % sequence coverage [2]: 6%
- total spectra [2]: 5 spectra
- unique spectra [2]: 4 spectra
- % sequence coverage [3]: 39%
- total spectra [3]: 37 spectra
- unique spectra [3]: 24 spectra

Substance: Hsp90β (from UniProt P11499 2-724)
- % sequence coverage [2]: 21%
- total spectra [2]: 18 spectra
- unique spectra [2]: 11 spectra
- % sequence coverage [3]: 36%
- total spectra [3]: 49 spectra
- unique spectra [3]: 24 spectra

Substance: Hsp105 (from UniProt Q61699 2-858)
- % sequence coverage [3]: 10%
- total spectra [3]: 6 spectra
- unique spectra [3]: 5 spectra

Substance: Reticulocalbin 2 (from UniProt Q8BP92 26-320)
- % sequence coverage [2]: 22%
- total spectra [2]: 12 spectra
- unique spectra [2]: 6 spectra
- % sequence coverage [3]: 9%
- total spectra [3]: 4 spectra
- unique spectra [3]: 3 spectra

Substance: Sec61, alpha subunit 2 (from UniProt Q9H9S3 1-476)
- % sequence coverage [4]: 11%
- total peptide spectra [4]: 2 spectra
- unique peptide spectra [4]: 2 spectra

Substance: THR interactor 12 (from UniProt Q14669 2-1992)
- % sequence coverage [4]: 2%
- total peptide spectra [4]: 2 spectra
- unique peptide spectra [4]: 2 spectra

Substance: cyclophilin B (from UniProt P23284 34-216)
- % sequence coverage [3]: 13%
- total spectra [3]: 2 spectra
- unique spectra [3]: 2 spectra

Substance: flotillin 2 (from UniProt Q60634 2-428)
- % sequence coverage [1]: 5%
- total peptide spectra [1]: 2 spectra
- unique peptide spectra [1]: 2 spectra

Substance: proteasome 26S, non-ATPase, 2 (from UniProt Q13200 1-908)
- % sequence coverage [4]: 4%
- total peptide spectra [4]: 2 spectra
- unique peptide spectra [4]: 2 spectra
- % sequence coverage [5]: 13%
- total peptide spectra [5]: 8 spectra
- unique peptide spectra [5]: 7 spectra

Substance: proteasome 26S, non-ATPase, 11 (from UniProt O00231 2-422)
- % sequence coverage [5]: 5%
- total peptide spectra [5]: 2 spectra
- unique peptide spectra [5]: 2 spectra

Substance: proteasome, alpha type 5 (from UniProt Q9Z2U1 1-241)
- % sequence coverage [5]: 23%
- total peptide spectra [5]: 3 spectra
- unique peptide spectra [5]: 3 spectra

Substance: proteasome, beta type 1 (from UniProt O09061 28-240)
- % sequence coverage [5]: 23%
- total peptide spectra [5]: 3 spectra
- unique peptide spectra [5]: 3 spectra

Substance: proteasome, beta type, 3 (from UniProt P49720 2-205)
- % sequence coverage [5]: 24%
- total peptide spectra [5]: 3 spectra
- unique peptide spectra [5]: 3 spectra

Substance: ubiquitin protein ligase E3A (from UniProt Q05086 1-875) (enzyme)
- % sequence coverage [4]: 6%
- total peptide spectra [4]: 2 spectra
- unique peptide spectra [4]: 2 spectra

Substance: βCOP (from UniProt P53618 2-953)
- % sequence coverage [1]: 5%
- total peptide spectra [1]: 2 spectra
- unique peptide spectra [1]: 2 spectra

Second part, the substance after the results:

- % sequence coverage [1]: 16%
- total peptide spectra [1]: 4 spectra
- unique peptide spectra [1]: 2 spectra
Substance: ARF4 (from UniProt P61750 2-180)

- % sequence coverage [2]: 34%
- total spectra [2]: 20 spectra
- unique spectra [2]: 10 spectra
- % sequence coverage [3]: 15%
- total spectra [3]: 15 spectra
- unique spectra [3]: 7 spectra
Substance: Aha1, activator of heat shock 90 kDa protein ATPase homolog 1 (from UniProt O95433 1-338)

- % sequence coverage [1]: 2%
- total peptide spectra [1]: 2 spectra
- unique peptide spectra [1]: 2 spectra
Substance: CLCA1 (from UniProt A8K7I4 22-914)

- % sequence coverage [2]: 7%
- total spectra [2]: 3 spectra
- unique spectra [2]: 3 spectra
Substance: Calumenin (from UniProt O43852 20-315)

- % sequence coverage [3]: 8%
- total spectra [3]: 3 spectra
- unique spectra [3]: 2 spectra
Substance: Cdc37 (from UniProt Q61081 1-379)

- % sequence coverage [3]: 34%
- total spectra [3]: 35 spectra
- unique spectra [3]: 11 spectra
Substance: DnaJ-like protein (from UniProt P63036 1-394)

- % sequence coverage [3]: 34%
- total spectra [3]: 40 spectra
- unique spectra [3]: 23 spectra
Substance: GRP75 (from UniProt P38647 47-679)

- % sequence coverage [2]: 33%
- total spectra [2]: 37 spectra
- unique spectra [2]: 17 spectra
- % sequence coverage [3]: 40%
- total spectra [3]: 85 spectra
- unique spectra [3]: 30 spectra
Substance: GRP78 (from UniProt P20029 20-655)

- % sequence coverage [2]: 48%
- total spectra [2]: 132 spectra
- unique spectra [2]: 39 spectra
Substance: Hsc70 (from UniProt P63018 2-646)

- % sequence coverage [2]: 8%
- total spectra [2]: 6 spectra
- unique spectra [2]: 4 spectra
- % sequence coverage [3]: 19%
- total spectra [3]: 20 spectra
- unique spectra [3]: 12 spectra
Substance: Hsp70-1A (from UniProt P0DMV8 2-641)

- % sequence coverage [2]: 8%
- total spectra [2]: 17 spectra
- unique spectra [2]: 7 spectra
- % sequence coverage [3]: 16%
- total spectra [3]: 57 spectra
- unique spectra [3]: 23 spectra
Substance: Hsp70-2 (from UniProt P54652 1-639)

- % sequence coverage [2]: 3%
- total spectra [2]: 5 spectra
- unique spectra [2]: 3 spectra
- % sequence coverage [3]: 10%
- total spectra [3]: 14 spectra
- unique spectra [3]: 8 spectra
Substance: Hsp70B′ (from UniProt P17066 1-643)

- % sequence coverage [1]: 6%
- total peptide spectra [1]: 2 spectra
- unique peptide spectra [1]: 2 spectra
Substance: RalBP1 associated Eps domain containing protein (Reps1) (from UniProt O54916 1-795)

- % sequence coverage [2]: 50%
- total spectra [2]: 19 spectra
- unique spectra [2]: 14 spectra
- % sequence coverage [3]: 27%
- total spectra [3]: 8 spectra
- unique spectra [3]: 5 spectra
Substance: Reticulocalbin (from UniProt Q05186 24-325)

- % sequence coverage [4]: 11%
- total peptide spectra [4]: 7 spectra
- unique peptide spectra [4]: 4 spectra
Substance: Sec61 alpha subunit isoform 1 (from UniProt P61619 1-476)

- % sequence coverage [2]: 9%
- total spectra [2]: 5 spectra
- unique spectra [2]: 3 spectra
- % sequence coverage [3]: 10%
- total spectra [3]: 5 spectra
- unique spectra [3]: 3 spectra
Substance: TCP1 (from UniProt P11983 1-556)

- % sequence coverage [1]: 7%
- total peptide spectra [1]: 2 spectra
- unique peptide spectra [1]: 2 spectra
Substance: VCP (RefSeq NM_009503) (from UniProt Q01853 2-806)

- % sequence coverage [4]: 7%
- total peptide spectra [4]: 2 spectra
- unique peptide spectra [4]: 2 spectra
- % sequence coverage [5]: 25%
- total peptide spectra [5]: 14 spectra
- unique peptide spectra [5]: 10 spectra
Substance: VCP/p97/Cdc48 (from UniProt P55072 2-806)

- % sequence coverage [1]: 5%
- total peptide spectra [1]: 2 spectra
- unique peptide spectra [1]: 2 spectra
Substance: VPS 4A (from UniProt Q9UN37 1-437)

- % sequence coverage [1]: 13%
- total peptide spectra [1]: 11 spectra
- unique peptide spectra [1]: 3 spectra
Substance: clathrin, light chain (from UniProt O08585 1-235)

- % sequence coverage [1]: 5%
- total peptide spectra [1]: 3 spectra
- unique peptide spectra [1]: 3 spectra
Substance: disabled homolog 2 (Dab2) (from UniProt P98078 2-766)

- % sequence coverage [1]: 9%
- total peptide spectra [1]: 5 spectra
- unique peptide spectra [1]: 4 spectra
Substance: enthoprotin (from UniProt Q14677 1-625)

- % sequence coverage [3]: 16%
- total spectra [3]: 2 spectra
- unique spectra [3]: 2 spectra
Substance: p23 (from UniProt Q15185 1-160)

- % sequence coverage [5]: 8%
- total peptide spectra [5]: 3 spectra
- unique peptide spectra [5]: 2 spectra
Substance: proteasome 26S, ATPase 3 (from UniProt O88685 1-442)

- % sequence coverage [5]: 12%
- total peptide spectra [5]: 3 spectra
- unique peptide spectra [5]: 2 spectra
Substance: proteasome 26S, ATPase, 4 (from UniProt P43686 1-418)

- % sequence coverage [5]: 17%
- total peptide spectra [5]: 5 spectra
- unique peptide spectra [5]: 2 spectra
Substance: proteasome, alpha type 2 (from UniProt P49722 2-234)

- % sequence coverage [5]: 16%
- total peptide spectra [5]: 2 spectra
- unique peptide spectra [5]: 2 spectra
Substance: proteasome, beta type, 4 (from UniProt P28070 46-264)

- % sequence coverage [1]: 1%
- total peptide spectra [1]: 12 spectra
- unique peptide spectra [1]: 1 spectra
Substance: sortilin-related receptor L (SORL1) (from UniProt Q92673 82-2214)

- % sequence coverage [1]: 3%
- total peptide spectra [1]: 5 spectra
- unique peptide spectra [1]: 3 spectra
Substance: sorting nexin 4 (from UniProt O95219 1-450)

- % sequence coverage [1]: 5%
- total peptide spectra [1]: 2 spectra
- unique peptide spectra [1]: 2 spectra
Substance: sorting nexin 9 (from UniProt Q9Y5X1 1-595)

- % sequence coverage [4]: 1%
- total peptide spectra [4]: 3 spectra
- unique peptide spectra [4]: 2 spectra
Substance: ubiquitin specific protease 9 (from UniProt Q93008 1-2554) (enzyme)
